B1: Full-length wild-type Sulfolobus solfataricus minichromosome maintenance (MCM) helicase (enzyme, UniProt Q9UXG1 1-686, looked up)
chain: MEIPSKQIDYRDVFIEFLTTFKGNNNQNKYIERINELVAYRKKSLIIEFSDVLSFNENLAYEIINNTKIILPILEGALYDHILQLDPTYQRDIEKVHVRIVGIPRVIELRKIRSTDIGKLITIDGILVKVTPVKERIYKATYKHIHPDCMQEFEWPEDEEMPEVLEMPTICPKCGKPGQFRLIPEKTKLIDWQKAVIQERPEEVPSGQLPRQLEIILEDDLVDSARPGDRVKVTGILDIKQDSPVKRGSRAVFDIYMKVSSIEVSQKVLDEVIISEEDEKKIKDLAKDPWIRDRIISSIAPSIYGHWELKEALALALFGGVPKVLEDTRIRGDIHILIIGDPGTAKSQMLQFISRVAPRAVYTTGKGSTAAGLTAAVVREKGTGEYYLEAGALVLADGGIAVIDEIDKMRDEDRVAIHEAMEQQTVSIAKAGIVAKLNARAAVIAAGNPKFGRYISERPVSDNINLPPTILSRFDLIFILKDQPGEQDRELANYILDVHSGKSTKNIIDIDTLRKYIAYARKYVTPKITSEAKNLITDFFVEMRKKSSETPDSPILITPRQLEALIRISEAYAKMALKAEVTREDAERAINIMRLFLESVGVDMESGKIDIDTIMTGKPKSAREKMMKIIEIIDSLAVSSECAKVKDILKEAQQVGIEKSNIEKLLTDMRKSGIIYEAKPECYKKV
B2: SsoMCM K323A (enzyme, Sulfolobus solfataricus, UniProt Q9UXG1 1-686, looked up)
chain: MEIPSKQIDYRDVFIEFLTTFKGNNNQNKYIERINELVAYRKKSLIIEFSDVLSFNENLAYEIINNTKIILPILEGALYDHILQLDPTYQRDIEKVHVRIVGIPRVIELRKIRSTDIGKLITIDGILVKVTPVKERIYKATYKHIHPDCMQEFEWPEDEEMPEVLEMPTICPKCGKPGQFRLIPEKTKLIDWQKAVIQERPEEVPSGQLPRQLEIILEDDLVDSARPGDRVKVTGILDIKQDSPVKRGSRAVFDIYMKVSSIEVSQKVLDEVIISEEDEKKIKDLAKDPWIRDRIISSIAPSIYGHWELKEALALALFGGVPAVLEDTRIRGDIHILIIGDPGTAKSQMLQFISRVAPRAVYTTGKGSTAAGLTAAVVREKGTGEYYLEAGALVLADGGIAVIDEIDKMRDEDRVAIHEAMEQQTVSIAKAGIVAKLNARAAVIAAGNPKFGRYISERPVSDNINLPPTILSRFDLIFILKDQPGEQDRELANYILDVHSGKSTKNIIDIDTLRKYIAYARKYVTPKITSEAKNLITDFFVEMRKKSSETPDSPILITPRQLEALIRISEAYAKMALKAEVTREDAERAINIMRLFLESVGVDMESGKIDIDTIMTGKPKSAREKMMKIIEIIDSLAVSSECAKVKDILKEAQQVGIEKSNIEKLLTDMRKSGIIYEAKPECYKKV
B3: SsoMCM R440A (enzyme, Sulfolobus solfataricus, UniProt Q9UXG1 1-686, looked up)
chain: MEIPSKQIDYRDVFIEFLTTFKGNNNQNKYIERINELVAYRKKSLIIEFSDVLSFNENLAYEIINNTKIILPILEGALYDHILQLDPTYQRDIEKVHVRIVGIPRVIELRKIRSTDIGKLITIDGILVKVTPVKERIYKATYKHIHPDCMQEFEWPEDEEMPEVLEMPTICPKCGKPGQFRLIPEKTKLIDWQKAVIQERPEEVPSGQLPRQLEIILEDDLVDSARPGDRVKVTGILDIKQDSPVKRGSRAVFDIYMKVSSIEVSQKVLDEVIISEEDEKKIKDLAKDPWIRDRIISSIAPSIYGHWELKEALALALFGGVPKVLEDTRIRGDIHILIIGDPGTAKSQMLQFISRVAPRAVYTTGKGSTAAGLTAAVVREKGTGEYYLEAGALVLADGGIAVIDEIDKMRDEDRVAIHEAMEQQTVSIAKAGIVAKLNAAAAVIAAGNPKFGRYISERPVSDNINLPPTILSRFDLIFILKDQPGEQDRELANYILDVHSGKSTKNIIDIDTLRKYIAYARKYVTPKITSEAKNLITDFFVEMRKKSSETPDSPILITPRQLEALIRISEAYAKMALKAEVTREDAERAINIMRLFLESVGVDMESGKIDIDTIMTGKPKSAREKMMKIIEIIDSLAVSSECAKVKDILKEAQQVGIEKSNIEKLLTDMRKSGIIYEAKPECYKKV

Molecular target: the molecule itself
Assay: SEC

Stoichiometry N, 6:
B1, B2, B3

From article PMC3159478 (Nucleic Acids Research, 2011)
